Reference: IntAct's records for PubMed 24183572

B1: Gamma-crystallin S (Homo sapiens), P22914 (parent)
chain: MSKTGTKITFYEDKNFQGRRYDCDCDCADFHTYLSRCNSIKVEGGTWAVYERPNFAGYMYILPQGEYPEYQRWMGLNDRLSSCRAVHLPSGGQYKIQIFEKGDFSGQMYETTEDCPSIMEQFHMREIHSCKVLEGVWIFYELPNYRGRQYLLDKKEYRKPIDWGAASPAVQSFRRIVE
partner: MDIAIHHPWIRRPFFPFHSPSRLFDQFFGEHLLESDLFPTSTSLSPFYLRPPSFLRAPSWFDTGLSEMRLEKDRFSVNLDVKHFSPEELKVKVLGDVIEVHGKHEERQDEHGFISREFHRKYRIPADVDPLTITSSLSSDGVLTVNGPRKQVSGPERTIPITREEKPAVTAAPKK

Variants of: B1
Settings: with cryab_human CRYAB

| Variant | effect of a mutation on the interaction |
| --- | --- |
| G18V | increasing interaction strength |
